These results are taken from PMC8067440 (Journal of Personalized Medicine, 2021).

Series [1] addresses T1, AGT (DMa, major allele) (Homo sapiens, UniProt P21549, I340M/P11L).
T1 construct: gene AGXT; full length, expressed in E. coli BL21(DE3), purified on HisPrep FF (His-tagged, removal not mentioned)
T1 sequence (P21549 1-392 P11L/I340M): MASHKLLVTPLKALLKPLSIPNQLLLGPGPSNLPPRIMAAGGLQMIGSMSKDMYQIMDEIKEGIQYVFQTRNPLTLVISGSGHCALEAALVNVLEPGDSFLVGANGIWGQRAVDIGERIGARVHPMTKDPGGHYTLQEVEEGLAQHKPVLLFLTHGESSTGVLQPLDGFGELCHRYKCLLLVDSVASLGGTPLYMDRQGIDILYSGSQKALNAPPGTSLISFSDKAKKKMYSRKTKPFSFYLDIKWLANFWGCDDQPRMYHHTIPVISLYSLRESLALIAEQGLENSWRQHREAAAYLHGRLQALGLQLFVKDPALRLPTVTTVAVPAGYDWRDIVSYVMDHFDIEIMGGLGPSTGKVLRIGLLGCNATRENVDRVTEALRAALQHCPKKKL
As to the kind of experiment: not described here for DMi. Type of series: binding. As to conditions: read-out: KD(PLP). From the text:
not described here for DMi on AGT (DMa, major allele; rows DMi, MMa, MMi)

The target in series [2] is T2, AGT (DMa, major allele) (Homo sapiens, UniProt P21549, F238S/F240S/I340M/P11L/R118A).
T2 construct: gene AGXT; full length, expressed in E. coli BL21(DE3), purified on HisPrep FF (His-tagged, removal not mentioned)
T2 sequence (P21549 1-392 P11L/R118A/F238S/F240S/I340M): T1 sequence (P21549 1-392 P11L/I340M) with R118A, F238S, F240S
Kind of series: not described in detail here for MMi. Type of series: binding. As to conditions: read-out: KD(PLP). From the text:
not described in detail here for MMi on AGT (DMa, major allele; rows DMi, MMa, MMi)

The target in series [3] is T3, DMa-FlAsH (row MMa-FlAsH) (Homo sapiens, UniProt P21549, INS254CCPGCC).
T3 construct: gene AGXT; full length with CCPGCC FlAsH motif inserted in a surface loop, expressed in E. coli BL21(DE3), purified on HisPrep FF (His-tagged)
T3 sequence (P21549 with tags, fused parts or gaps INS254CCPGCC): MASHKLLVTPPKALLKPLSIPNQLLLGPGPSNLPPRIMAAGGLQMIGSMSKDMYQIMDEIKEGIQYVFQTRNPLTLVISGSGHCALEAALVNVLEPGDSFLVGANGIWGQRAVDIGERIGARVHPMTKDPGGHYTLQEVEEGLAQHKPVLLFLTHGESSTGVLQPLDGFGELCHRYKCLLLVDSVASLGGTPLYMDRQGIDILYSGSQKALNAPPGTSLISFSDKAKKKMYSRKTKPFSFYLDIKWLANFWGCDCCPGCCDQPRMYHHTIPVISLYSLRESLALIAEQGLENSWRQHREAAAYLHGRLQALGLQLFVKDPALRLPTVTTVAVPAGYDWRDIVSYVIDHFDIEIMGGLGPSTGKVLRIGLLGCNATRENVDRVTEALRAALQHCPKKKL
As to the kind of experiment: intrinsic fluorescence quenching of apoenzyme, tight-binding quadratic fit. The following applies: 0.1 μM apoenzyme, 24 h incubation, PLP 0.01–10 μM. How it is done:
intrinsic fluorescence quenching of apoenzyme, tight-binding quadratic fit on DMa-FlAsH (row MMa-FlAsH) | The KD(PLP) of DMa-FlAsH was calculated by measuring the intrinsic fluorescence quenching

Series [4] deals with T4, AGT (DMa, major allele) (Homo sapiens, UniProt P21549, F238S/F240S/R118A).
T4 construct: gene AGXT; full length, expressed in E. coli BL21(DE3), purified on HisPrep FF (His-tagged, removal not mentioned)
T4 sequence (P21549 1-392 R118A/F238S/F240S): T1 sequence (P21549 1-392 P11L/I340M) with L11P, R118A, F238S, F240S, M340I
Kind of series: CD signal at […] nm, tight-binding quadratic fit. As to conditions: read-out: KD(PLP).

Series [5] has as its target T5, AGT (DMa, major allele) (Homo sapiens, UniProt P21549).
T5 construct: gene AGXT; full length, expressed in E. coli BL21(DE3), purified on HisPrep FF (His-tagged, removal not mentioned)
T5 sequence (P21549 1-392): T1 sequence (P21549 1-392 P11L/I340M) with L11P, M340I
As to the kind of experiment: not described here for DMa. As to conditions: read-out: KD(PLP). It is filed as binding. From the text:
not described here for DMa on AGT (DMa, major allele; rows DMi, MMa, MMi)

Series [6] has as its target T6, DMa-FlAsH (row MMa-FlAsH) (Homo sapiens, UniProt P21549, R118A/F238S/F240S/INS254CCPGCC).
T6 construct: gene AGXT; full length with CCPGCC FlAsH motif inserted in a surface loop, expressed in E. coli BL21(DE3), purified on HisPrep FF (His-tagged)
T6 sequence (P21549 with tags, fused parts or gaps R118A/F238S/F240S/INS254CCPGCC): T3 sequence (P21549 with tags, fused parts or gaps INS254CCPGCC) with R118A, F238S, F240S
Kind of series: CD signal at […] nm, tight-binding quadratic fit. As to conditions: 10 μM apoenzyme, 24 h incubation, PLP 1–300 μM.

The target of series [7] is artificial monomeric form of alanine:glyoxylate aminotransferase on the major allele (MMa), R118A/F238S/F240S, recombinant purified (human) (UniProt P21549). Kind of series: SEC; holo-form, in the presence of saturating PLP; Superdex 200 10/300 GL, room temperature, KP 0.1 M, pH 7.4; samples at different concentrations incubated overnight at 25 °C; percent dimer from peak areas fitted; dimer to monomers. For orientation: In gel filtration, larger molecules generally elute earlier.

For series [8] the target is unchanged. As to the kind of experiment: SEC; apo-form; Superdex 200 10/300 GL, room temperature, KP 0.1 M, pH 7.4; samples at different concentrations incubated overnight at 25 °C; percent dimer from peak areas fitted; dimer to monomers.
Series [9] deals with the molecule itself. The series is described as above.
Series [10] deals with the molecule itself. Kind of series: SEC; holo-form, in the presence of saturating PLP; Superdex 200 10/300 GL, room temperature, KP 0.1 M, pH 7.4; samples at different concentrations incubated overnight at 25 °C; percent dimer from peak areas fitted; dimer to monomers.

Residue numbers refer to the chain shown, from its start. In names and notes the source's numbering stands.

Usually Kd stands for the free concentration of one partner at which half of the binding sites on the other are occupied at equilibrium, for simple one-to-one binding. With `Cc1ncc(COP(=O)(O)O)c(C=O)c1O` [PLP], the Kd on AGT (DMa, major allele) [1] is 260 ± 20 nM; on AGT (DMa, major allele) [2], 4.4 ± 0.5 µM; in [3], 250 ± 30 nM; on AGT (DMa, major allele) [4], 3.2 ± 0.6 µM; on AGT (DMa, major allele) [5], 270 ± 30 nM; in series [6] it was 7.2 ± 1.1 µM.
With “artificial monomeric form of alanine:glyoxylate aminotransferase on the major allele (MMa), R118A/F238S/F240S, recombinant purified (from UniProt P21549 1-392) (enzyme)”, the Kd in series [7] stood at 1500 nM; in series [8], 4.1 µM.

B1: alanine:glyoxylate aminotransferase, native dimeric form encoded by the major allele (DMa), recombinant purified (enzyme, human, UniProt P21549 1-392, looked up)
chain: T1 sequence (P21549 1-392 P11L/I340M) with L11P, M340I
notes: human alanine:glyoxylate aminotransferase (AGT), major allele (Pro11, Ile340); bacterial construct pAGT-Ma; Homodimer in its native state; Used as apo-form and as holo-form (with PLP); also called AGT; AGT-Ma; source: E. coli BL21(DE3), purified (HisPrep FF)
As to B1, the Kd in [9] and in [10] was < 0.3 µM throughout.

B2: artificial monomeric form of alanine:glyoxylate aminotransferase on the minor allele (MMi), R118A/F238S/F240S, recombinant purified (enzyme, human, UniProt P21549 1-392, looked up)
chain: T1 sequence (P21549 1-392 P11L/I340M) with R118A, F238S, F240S
notes: human alanine:glyoxylate aminotransferase (AGT), minor allele (Pro11Leu, Ile340Met), with the interfacial mutations R118A/F238S/F240S on pAGT-Mi; Used as apo-form and as holo-form (with PLP); source: E. coli BL21(DE3), purified (HisPrep FF)
Take B2: the Kd in [9] came to 80 ± 1 µM; in [10], 9.4 ± 0.5 µM.

B3: alanine:glyoxylate aminotransferase, native dimeric form encoded by the minor allele (DMi), recombinant purified (enzyme, human, UniProt P21549 1-392, looked up)
chain: T1 sequence (P21549 1-392 P11L/I340M)
notes: human alanine:glyoxylate aminotransferase (AGT), minor allele (Pro11Leu, Ile340Met); bacterial construct pAGT-Mi; Homodimer in its native state; Used as apo-form and as holo-form (with PLP); also called AGT-Mi; source: E. coli BL21(DE3), purified (HisPrep FF)
With B3, the Kd in [9] and in series [10] was < 0.3 µM each time.
